Biological target: T1, human recombinant HMGB1 protein (high-mobility group box-1) (human, UniProt P09429 1-215)
T1 chain: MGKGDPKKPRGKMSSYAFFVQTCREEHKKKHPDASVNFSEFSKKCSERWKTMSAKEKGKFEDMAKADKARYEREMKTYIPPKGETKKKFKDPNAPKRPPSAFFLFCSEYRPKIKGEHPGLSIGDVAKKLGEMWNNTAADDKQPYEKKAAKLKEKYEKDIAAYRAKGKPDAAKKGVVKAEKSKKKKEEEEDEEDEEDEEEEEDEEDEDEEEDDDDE
Test: SPR

Row | Binder | koff [s⁻¹]
1 | lactoferrin-glycyrrhizin conjugate Lf-GL (1:15) (other, glycyrrhizin (oxidised with sodium periodate) coupled to amines of Lf by Schiff-base reaction and reduction with NaBH3CN; ratio Lf:GL 1:15 as printed; modified residues not identified) GRRRSVQWCAVSQPEATKCFQWQRNMRKVRGPPVSCIKRDSPIQCIQAIAENRADAVTLDGGFIYEAGLAPYKLRPVAAEVYGTERQPRTHYYAVAVVKKGGSFQLNELQGLKSCHTGLRRTAGWNVPIGTLRPFLNWTGPPEPIEAAVARFFSASCVPGADKGQFPNLCRLCAGTGENKCAFSSQEPYFSYSGAFKCLRDGAGDVAFIRESTVFEDLSDEAERDEYELLCPDNTRKPVDKFKDCHLARVPSHAVVARSVNGKEDAIWNLLRQAQEKFGKDKSPKFQLFGSPSGQKDLLFKDSAIGFSRVPPRIDSGLYLGSGYFTAIQNLRKSEEEVAARRARVVWCAVGEQELRKCNQWSGLSEGSVTCSSASTTEDCIALVLKGEADAMSLDGGYVYTAGKCGLVPVLAENYKSQQSSDPDPNCVDRPVEGYLAVAVVRRSDTSLTWNSVKGKKSCHTAVDRTAGWNIPMGLLFNQTGSCKFDEYFSQSCAPGSDPRSNLCALCIGDEQGENKCVPNSNERYYGYTGAFRCLAENAGDVAFVKDVTVLQNTDGNNNEAWAKDLKLADFALLCLDGKRKPVTEARSCHLAMAPNHAVVSRMDKVERLKQVLLHQQAKFGRNGSDCPDKFCLFQSETKNLLFNDNTECLARLHGKTTYEKYLGPQYVAGITNLKKCSTSPLLEACEFLRK | 0.000965
2 | lactoferrin-glycyrrhizin conjugate Lf-GL (1:4) (other, glycyrrhizin (oxidised with sodium periodate) coupled to amines of Lf by Schiff-base reaction and reduction with NaBH3CN; ratio Lf:GL 1:4 as printed; modified residues not identified) GRRRSVQWCAVSQPEATKCFQWQRNMRKVRGPPVSCIKRDSPIQCIQAIAENRADAVTLDGGFIYEAGLAPYKLRPVAAEVYGTERQPRTHYYAVAVVKKGGSFQLNELQGLKSCHTGLRRTAGWNVPIGTLRPFLNWTGPPEPIEAAVARFFSASCVPGADKGQFPNLCRLCAGTGENKCAFSSQEPYFSYSGAFKCLRDGAGDVAFIRESTVFEDLSDEAERDEYELLCPDNTRKPVDKFKDCHLARVPSHAVVARSVNGKEDAIWNLLRQAQEKFGKDKSPKFQLFGSPSGQKDLLFKDSAIGFSRVPPRIDSGLYLGSGYFTAIQNLRKSEEEVAARRARVVWCAVGEQELRKCNQWSGLSEGSVTCSSASTTEDCIALVLKGEADAMSLDGGYVYTAGKCGLVPVLAENYKSQQSSDPDPNCVDRPVEGYLAVAVVRRSDTSLTWNSVKGKKSCHTAVDRTAGWNIPMGLLFNQTGSCKFDEYFSQSCAPGSDPRSNLCALCIGDEQGENKCVPNSNERYYGYTGAFRCLAENAGDVAFVKDVTVLQNTDGNNNEAWAKDLKLADFALLCLDGKRKPVTEARSCHLAMAPNHAVVSRMDKVERLKQVLLHQQAKFGRNGSDCPDKFCLFQSETKNLLFNDNTECLARLHGKTTYEKYLGPQYVAGITNLKKCSTSPLLEACEFLRK | 0.00158
3 | lactoferrin-glycyrrhizin conjugate Lf-GL (1:10) (other, glycyrrhizin (oxidised with sodium periodate) coupled to amines of Lf by Schiff-base reaction and reduction with NaBH3CN; binding ratio Lf:GL 1:10 (1:9.6 by MALDI-TOF, 86,727.3 Da); modified residues not identified) GRRRSVQWCAVSQPEATKCFQWQRNMRKVRGPPVSCIKRDSPIQCIQAIAENRADAVTLDGGFIYEAGLAPYKLRPVAAEVYGTERQPRTHYYAVAVVKKGGSFQLNELQGLKSCHTGLRRTAGWNVPIGTLRPFLNWTGPPEPIEAAVARFFSASCVPGADKGQFPNLCRLCAGTGENKCAFSSQEPYFSYSGAFKCLRDGAGDVAFIRESTVFEDLSDEAERDEYELLCPDNTRKPVDKFKDCHLARVPSHAVVARSVNGKEDAIWNLLRQAQEKFGKDKSPKFQLFGSPSGQKDLLFKDSAIGFSRVPPRIDSGLYLGSGYFTAIQNLRKSEEEVAARRARVVWCAVGEQELRKCNQWSGLSEGSVTCSSASTTEDCIALVLKGEADAMSLDGGYVYTAGKCGLVPVLAENYKSQQSSDPDPNCVDRPVEGYLAVAVVRRSDTSLTWNSVKGKKSCHTAVDRTAGWNIPMGLLFNQTGSCKFDEYFSQSCAPGSDPRSNLCALCIGDEQGENKCVPNSNERYYGYTGAFRCLAENAGDVAFVKDVTVLQNTDGNNNEAWAKDLKLADFALLCLDGKRKPVTEARSCHLAMAPNHAVVSRMDKVERLKQVLLHQQAKFGRNGSDCPDKFCLFQSETKNLLFNDNTECLARLHGKTTYEKYLGPQYVAGITNLKKCSTSPLLEACEFLRK | 0.000311
4 | lactoferrin human (Lf) (natural protein) GRRRSVQWCAVSQPEATKCFQWQRNMRKVRGPPVSCIKRDSPIQCIQAIAENRADAVTLDGGFIYEAGLAPYKLRPVAAEVYGTERQPRTHYYAVAVVKKGGSFQLNELQGLKSCHTGLRRTAGWNVPIGTLRPFLNWTGPPEPIEAAVARFFSASCVPGADKGQFPNLCRLCAGTGENKCAFSSQEPYFSYSGAFKCLRDGAGDVAFIRESTVFEDLSDEAERDEYELLCPDNTRKPVDKFKDCHLARVPSHAVVARSVNGKEDAIWNLLRQAQEKFGKDKSPKFQLFGSPSGQKDLLFKDSAIGFSRVPPRIDSGLYLGSGYFTAIQNLRKSEEEVAARRARVVWCAVGEQELRKCNQWSGLSEGSVTCSSASTTEDCIALVLKGEADAMSLDGGYVYTAGKCGLVPVLAENYKSQQSSDPDPNCVDRPVEGYLAVAVVRRSDTSLTWNSVKGKKSCHTAVDRTAGWNIPMGLLFNQTGSCKFDEYFSQSCAPGSDPRSNLCALCIGDEQGENKCVPNSNERYYGYTGAFRCLAENAGDVAFVKDVTVLQNTDGNNNEAWAKDLKLADFALLCLDGKRKPVTEARSCHLAMAPNHAVVSRMDKVERLKQVLLHQQAKFGRNGSDCPDKFCLFQSETKNLLFNDNTECLARLHGKTTYEKYLGPQYVAGITNLKKCSTSPLLEACEFLRK | 0.0134

From article PMC10200060 (2023)
